Measurements as given in the DeepSol protein solubility set.

Experiment: soluble on expression in E. coli; label from the status in PepcDB or PDB records

Sequence	soluble on expression in E. coli
MKLHEAKLLLNDPTFSIDSITYQELEMDSDYVDVHEDISYSKDNVDLHSHTFFEILFCQSGSLQYMVGNTRYQLVKNSIVCIPPGVSHCPLYLEQLSEPYRRTVMWISNKIYHQYMNLLNNDPIEKSSCLLPQNVFLLSGNILYQVEELYEKMLNIPPDFSGAELYKIGLSAQIVTLFHQFLNSHEINPLKPEKTILLDEIIHFIENHLSEELSAKRIAAHFLVSESSINQLFSKQISLSLYRYITQRRLIEAKNLISSQTPLKKLPELCGFSDYSVFYKAFTKQYGISPKEYKNRIFKMQQ	soluble
MKLIFQMGKQPVLEKTILLFILSIVESLKLKVVSLDEAHRYIFNLEVLELLMDRNIDDQVLELIHFGMGLEDIYHVLPEELEHTIEELKWLCIQVLSEYSMHEESEQLIEDIR	not soluble
MKLKNTLLASALLSAMAFSVNAATELTPEQAAAVKPFDRVVVTGRFNAIGEAVKAVSRRADKEGAASFYVVDTSDFGNSGNWRVVADLYKADAEKAEETSNRVINGVVELPKDQAVLIEPFDTVTVQGFYRSQPEVNDAITKAAKAKGAYSFYIVRQIDANQGGNQRITAFIYKKDAKKRIVQSPDVIPADSEAGRAALAAGGEAAKKVEIPGVATTASPSSEVGRFFETQSSKGGRYTVTLPDGTKVEELNKATAAMMVPFDSIKFSGNYGNMTEVSYQVAKRAAKKGAKYYHITRQWQERGNNLTVSADLYKLEHHHHHH	not soluble
MKLKTNIRHLHGIIRVPGDKSISHRSIIFGSLAEGETKVYDILRGEDVLSTMQVFRDLGVEIEDKDGVITVQGVGMAGLKAPQNALNMGNSGTSIRLISGVLAGADFEVEMFGDDSLSKRPMDRVTLPLKKMGVSISGQTERDLPPLRLKGTKNLRPIHYELPIASAQVKSALMFAALQAKGESVIIEKEYTRNHTEDMLQQFGGHLSVDGKKITVQGPQKLTGQKVVVPGDISSAAFWLVAGLIAPNSRLVLQNVGINETRTGIIDVIRAMGGKLEITEIDPVAKSATLIVESSDLKGTEICGALIPRLIDELPIIALLATQAQGVTVIKDAEELKVKETDRIQVVADALNSMGADITPTADGMIIKGKSALHGARVNTFGDHRIGMMTAIAALLVADGEVELDRAEAINTSYPSFFDDLESLIHG	soluble
MKLLLLLCISCIPLAYSHDGEPFDYLMFTTIYPTAVCRADDDSVPESCEIPSGTPQWSIHGLWPNFENGSYPQNCRGTPRHFDENLIKSIEDRLVVVWPNLYPKKTIQSFWKHEYDKHGTCAQSEKLFESELAYFTEVMKVFDSIDVAGGLKSVGPSEKPITSSDLKNALSGVTSGKTFQFHCLRDKKTKQFLLGDIRLCLNKDLTIRDCPTDGKHPNRVSRFERSIGRNRRGPPLPSFQPCPAEFIYLPEMSSISKSSDSTSPSIFGRIWSAIKNIGN	not soluble
MKLMQIRKPLLKSSLLDQNLTEEEVNMKFVQDLLNWVDEMQVQLDRTEWGSDLPSVESHLENHKNVHRAIEEFESSLKEAKISEIQMTAPLKLSYTDKLHRLESQYAKLLNTSRNQERHLDTLHNFVTRATNELIWLNEKEESEVAYDWSERNSSVARKKSYHAELMRELEQKEESIKAVQEIAEQLLLENHPARLTIEAYRAAMQTQWSWILQLCQCVEQHIQE	soluble
MKLNKQNLTQLAPEVKLPAYTLADTRQGIAHIGVGGFHRAHQAYYTDALMNTGEGLDWSICGVGLRSEDRKARDDLAGQDYLFTLYELGDTDDTEVRVIGSISDMLLAEDSAQALIDKLASPEIRIVSLTITEGGYCIDDSNGEFMAHLPQIQHDLAHPSSPKTVFGFICAALTQRRAAGIPAFTVMSCDNLPHNGAVTRKALLAFAALHNAELHDWIKAHVSFPNAMVDRITPMTSTAHRLQLHDEHGIDDAWPVVCEPFVQWVLEDKFVNGRPAWEKVGVQFTDDVTPYEEMKIGLLNGSHLALTYLGFLKGYRFVHETMNDPLFVAYMRAYMDLDVTPNLAPVPGIDLTDYKQTLVDRFSNQAIADQLERVCSDGSSKFPKFTVPTINRLIADGRETERAALVVAAWALYLKGVDENGVSYTIPDPRAEFCQGLVSDDALISQRLLAVEEIFGTAIPNSPEFVAAFERCYGSLRDNGVTTTLKHLLKKPV	soluble
MKLQQLRYIVEVVNHNLNVSSTAEGLYTSQPGISKQVRMLEDELGIQIFARSGKHLTQVTPAGQEIIRIAREVLSKVDAIKSVAGEHTWPDKGSLYVATTHTQARYALPGVIKGFIERYPRVSLHMHQGSPTQIAEAVSKGNADFAIATEALHLYDDLVMLPCYHWNRSIVVTPEHPLATKGSVSIEELAQYPLVTYTFGFTGRSELDTAFNRAGLTPRIVFTATDADVIKTYVRLGLGVGVIASMAVDPVSDPDLVKLDANGIFSHSTTKIGFRRSTFLRSYMYDFIQRFAPHLTRDVVDTAVALRSNEDIEAMFKDIKLPEK	soluble
MKLREQINSISGFRYVIDELCIHSSVGRRCLMEQEFLTEASDIEVLLSRVEIAISYQADQRKQKGLDEIAHKLMQLRDIQGTIYSLSRHVVCTDIDFFEIKFLAILSEDIRDLIRFYQLDDLSSPLPDLSHIVSVLDPEEKKIPHFYIYDAYS	not soluble
MKLRLSALALGTTLLVGCASSGTDQQGRSDPLEGFNRTMYNFNFNVLDPYIVRPVAVAWRDYVPQPARNGLSNFTGNLEEPAVMVNYFLQGDPYQGMVHFTRFFLNTILGMGGFIDVAGMANPKLQRTEPHRFGSTLGHYGVGYGPYVQLPFYGSFTLRDDGGDMADGLYPVLSWLTWPMSVGKWTLEGIETRAQLLDSDGLLRQSSDPYIMVREAYFQRHDFIANGGELKPQENPNAQAIQDDLKDIDSE	not soluble
MKLSAQSHASIASSLREAVDKYIADGERTVVTDIHLQPKQDSGELVIFNDDDEELSRTIIEEWVDYSEDDFYTIVERILRGEINALKDTGVLDKLAIMKPYSFVLVDEDRETVTELLLIDDEDTLLLNDELLKGLDEELDAFLKDLLEKLEHHHHHH	soluble
MKLSIVIVNYRVPYFLEQCLLSVRKSAQGIDTEVWVVDNNSGDGSVEYLQSRFPEVHFVANEENVGFSRANNQAIRLSKGQYVLLLNPDTLIGESTLRTVVDFMDSKPNAGGLGVKMLNGHGRFLPESKRGFPSPWVSFCKLSGLNRLFPHSSRFNRYHLSYLSRDEVHKVEVLSGAFMLMRREALDKVGLLDERFFMYGEDIDLSYRLILGGYDNYYYPTPILHYKGESSSVSDVKYLRSFYGAMGLFFDKYYRNRMNPLLHGLINVVIKARTALALMLRSLRKVPAAEKPAKIFYWHPSEGEAAISAYHDRSHILINTDEVTCDRLLLTMEKLADRKHTFHLTNDTTKRVISP	not soluble
MKLSPREADGYFARPDAGKTGILIHGADAMRIALKRQQIIAALLGPGGEEEMRLTRMPGAELRKDAAQLLDAVKAVGFFPGPRVVFVEDCPETSAPAVLTALEDWQPGDAQIVVTAGQLKPSSKIRKAFETHPNAYAAGIYDDPPSRAEIERMLSAAGIRDVPPEPMTVLSDLARDLGPGDFAQTMEKLALYKLGDTAPLVLEDIAACAPRSTEAALDDVLNVVAEGKEGEIGPLIRRLQAQGTTPVSLCIGATRHFRTLYTCASAPGGPSQGIGALRPPVFGPRRDRILNQAQRWGARRLEAALTVLTDTDLALRSAGQSAPQMALVERAMIRLAWLSRSRLEHHHHHH	not soluble
MKLSRISAINWNKIQDDKDLEVWNRLTSNFWLPEKVPLSNDIPAWQTLSAAEQQLTIRVFTGLTLLDTIQNIAGAPSLMADAITPHEEAVLSNISFMEAVHARSYSSIFSTLCQTKEVDAAYAWSEENPPLQRKAQIILAHYVSDEPLKKKIASVFLESFLFYSGFWLPMYFSSRGKLTNTADLIRLIIRDEAVHGYYIGYKYQIALQKLSAIEREELKLFALDLLMELYDNEIRYTEALYAETGWVNDVKAFLCYNANKALMNLGYEALFPPEMADVNPAILAALSPNADENHDFFSGSGSSYVMGKTVETEDEDWNF	soluble
MKLTPKELDKLMLHYAGELAKKRKEKGIKLNYVEAVALISAHIMEEARAGKKTAAELMQEGRTLLKPDDVMDGVASMIHEVGIEAMFPDGTKLVTVHTPIEANGKLVPGELFLKNEDITINEGKKAVSVKVKNVGDRPVQIGSHFHFFEVNRCLDFDREKTFGKRLDIAAGTAVRFEPGEEKSVELIDIGGNRRIFGFNALVDRQADNESKKIALHRAKERGFHGAKSDDNYVKTIKE	soluble
MKMELKEGGKIFFRWFRKTFGEEVTDEGIIHRLEPPNLIEFSWNTYEDGFRSRVKMEFFPSSYNGTWVQVEDHTIVLNEEDMKIKLECAVGWGEMLTLAKIWIEYGISTLENP	not soluble
MKMINKLIVPVTASALLLGACGASATDSKENTLISSKAGDVTVADTMKKIGKDQIANASFTEMLNKILADKYKNKVNDKKIDEQIEKMQKQYGGKDKFEKALQQQGLTADKYKENLRTAAYHKELLSDKIKISDSEIKEDSKKASHILIKVKSKKSDKEGLDDKEAKQKAEEIQKEVSKDPSKFGEIAKKESMDTGSAKKDGELGYVLKGQTDKDFEKALFKLKDGEVSEVVKSSFGYHIIKADKPTDFNSEKQSLKEKLVDQKVQKNPKLLTDAYKDLLKEYDVDFKDRDIKSVVEDKILNPEKLKQGGAQGGQSGMSQ	soluble
MKMNYHLSTSSYTTSMLSCTVLDDDIRYEKLSWKLDEAEMQGLIM	soluble
MKNDRTLQAIGRQLKAMGCERFDIGVRDATTGQMMNREWSAAEVLQNTPWLKRMNAQGNDVYIRPAEQERHGLVLVDDLSEFDLDDMKAEGREPALVVETSPKNYQAWVKVADAAGGELRGQIARTLASEYDADPASADSRHYGRLAGFTNRKDKHTTRAGYQPWVLLRESKGKTATAGPALVQQAGQQIEQAQRQQEKARRLASLELPERQLSRHRRTALDEYRSEMAGLVKRFGDDLSKCDFIAAQKLASRGRSAEEIGKAMAEASPALAERKPGHEADYIERTVSKVMGLPSVQLARAELARAPAPRQRGMDRGGPDFSM	soluble
MKNIAIIGASGYTGAQLTALVHAESELSIQGLYVSENSLDKGRALADLYPVYSHIELTLSPLTEEAKANIVAEADAVVLATEHSVSLHLAAWFYSQGLAVFDLSGAYRFSDVAQYPKWYGFEHEYPEVLAKAVYGLAEWNAKDVAATKMIAVPGCYPTASLTALKPLKNLLTSAYPVINAVSGVTGAGRKAQLHTSFCEVSLTPYGVLGHRHQPEIATQLGQEVIFTPHLGNFKRGILATITVQLKPGTTTADVAAAYSVYDQAPLVTVKQNQFPKVDDVVLTPNCHLGWKFDESSGYLVVASAIDNLMKGAASQALQCIKIHFNL	not soluble
MKNICFINGSPRSKKANSTLYLNLIDKSLDSKNYTKYYIDTTSSIKGDLESTFKTLLDADYIILAFPLYVYSMPSLLVRFLEDYYIYLKNKDTISQKTNLYAVVNCGFPDAKMNVEALKIVFNCCKKLNINFRFGIGIGAGEFVNFSKNNPLLNKLSSCVYKSINKITYDIENQVSIEINNIFVNPKIPRRLFFIFGHIFWKKWAKRNGIKISALFDKPLEHHHHHH	not soluble
MKNIIRTPETHPLTWRLRDDKQPVWLDEYRSKNGYEGARKALTGLSPDEIVNQVKDAGLKGRGGAGFSTGLKWSLMPKDESMNIRYLLCNADEMEPGTYKDRLLMEQLPHLLVEGMLISAFALKAYRGYIFLRGEYIEAAVNLRRAIAEATEAGLLGKNIMGTGFDFELFVHTGAGRYICGEETALINSLEGRRANPRSKPPFPATSGVWGKPTCVNNVETLCNVPAILANGVEWYQNISKSKDAGTKLMGFSGRVKNPGLWELPFGTTAREILEDYAGGMRDGLKFKAWQPGGAGTDFLTEAHLDLPMEFESIGKAGSRLGTALAMAVDHEINMVSLVRNLEEFFARESCGWCTPCRDGLPWSVKILRALERGEGQPGDIETLEQLCRFLGPGKTFCAHAPGAVEPLQSAIKYFREEFEAGIKQPFSNTHLINGIQPNLLKERWLEHHHHHH	not soluble
